Assay results as given in patent US12458818B2, “Anti-trophoblast cell surface antigen 2 (TROP2) antibodies and antibody drug conjugates comprising same” (CSPC MEGALITH BIOPHARMACEUTICAL CO., LTD., priority 2019, dated 2025).
Values joined by “and” are separate entries in the source; they are usually repeats but may differ in a detail not shown here. Equal entries are not always repeated.

Experiments:
Assay type in all cases: in vivo, mouse
[1] = Body weight and tolerability in xenografted nude mice (Example 4)
Procedure: (§1) Each mouse was inoculated with 5×10^6 MDA-MB-468 tumor cells (in 0.1 mL, 1:1 with Matrigel) at the right flank by subcutaneous administration under sterile conditions. When the tumors reached a volume of ˜150 mm^3, mice were randomized into one of 7 treatment groups (6 mice per group), as outlined in Table 12, and treatments began. All doses of DP002-HC4LC5-ADC were administered by intravenous injection via tail vein injection.
(§2) Tumor size and animal body weight were measured twice per week. Clinical signs were recorded daily. Tumors were measured using a caliper in two dimensions (i.e., length (a) and width (b)), and tumor volumes were estimated from measurements of the two diameters of the individual tumors as follows: Tumor Volume (mm^3)=(a×b^2)/2.
(§3) Average tumor growth curves for each treatment group were plotted with the observation time on the X-axis, and corresponding tumor volume (geometric mean) on the Y-axis. A two-tailed t-test was used to analyze the statistical significance of any differences between the treatment groups and the control group. Tumor Growth Inhibition (TGI) was calculated after each tumor volume measurement according to the formula: % TGI=(TVcn−TVtn)/TVcn×100, where TVtn and TVcn are the mean tumor Volume of treated and control groups, respectively. Body weight change (CBW %) was calculated after each body weight measurement according to the formula: CBW %=(BWn−BW0)/BW0×100, where BWn is the body weight at day n and BW0 is the body weight at day 0 respectively.

[2] = test system: human MDA-MB-468 breast adenocarcinoma tumor xenografts; experiment: MDA-MB-468 xenograft efficacy in NOD/SCID mice (Example 3); settings: single dose on Day 0; for T/C (%) / TGI (%): Day 42
Procedure: (§4) The efficacies of two anti-TROP2-MMAE antibody drug conjugates, DP002-HC1LC5-ADC (DAR ˜2) and DP002-HC4LC5-ADC (DAR ˜1.6-2.3), in inhibiting tumor growth in mice bearing human MDA-MB-468 breast adenocarcinoma tumor xenografts were tested. DP002-HC1LC5-ADC comprises an anti-TROP antibody that comprises HC 1 (SEQ ID NO: 52) and LC5 (SEQ ID NO: 62); DP002-HC4LC5-ADC comprises an anti-TROP antibody that comprises HC 4 (SEQ ID NO: 44) and LC5 (SEQ ID NO: 62). Briefly, 48 NOD/SCID mice (female, 6-8 weeks of age) were implanted with 0.1 ml MDA-MB-468 cells (lx 10^7 cell/ml). When the tumors sizes reached above 181 mm^3 (34 days after tumor inoculation), the mice were sorted randomly into 7 groups (6 mice/group) and treated according to the schedule provided in Table 10 below: […]

[3] = Side effects in xenografted NOD/SCID mice (Example 3); settings: 1 mg/kg or 4 mg/kg intravenous, single dose on Day 0
Procedure: as §4

[4] = test system: xenografted MDA-MB-468 human breast adenocarcinoma tumors; experiment: MDA-MB-468 xenograft efficacy in female nude mice (Example 4); settings: 1 mg/kg IV Days 0, 7, 14, 21
Procedure: The anti-tumor activity of DP002-HC4LC5-ADC was evaluated as a single agent in female nude mice bearing xenografted MDA-MB-468 human breast adenocarcinoma tumors.
as §1, §2, §3

[5] = 2 mg/kg IV Day 0 + 1 mg/kg IV Days 7, 14

B1: DP002-HC4LC5-ADC: anti-TROP2-MMAE antibody drug conjugate (DAR ~1.6-2.3) of antibody with HC4 and LC5 (SEQ ID NO: 62) (conjugate)
VH: EVQLVQSGAEVKKPGESLKISCKGSGYTFTDYSINWVRQMPGKGLEWMGVISTYYGDASYNQKFKGQVTISADKSISTAYLQWSSLKASDTAMYYCARYGDGYNQFDYWGQGTLVTVSS
light: DIQMTQSPSSLSASVGDRVTITCRVSESVDSYGNNFMHWYQQKPGKAPKLLIYRASNLESGVPSRFSGSGSGTDFTFTISSLQPEDIATYYCQQSYEDPYTFGGGTKLEIKRTVAAPSVFIFPPSDEQLKSGTASVVCLLNNFYPREAKVQWKVDNALQSGNSQESVTEQDSKDSTYSLSSTLTLSKADYEKHKVYACEVTHQGLSSPVTKSFNRGEC
modifications: MMAE conjugate
BWC (%) Day 70 (body weight change vs Day 0) ([1]; 1 mg/kg IV Days 0, 7, 14, 21): 8.95%
Body Weight (g, Mean ± SEM) Day 70 ([1]; 1 mg/kg IV Days 0, 7, 14, 21): 21.70 ± 0.30 g
Body Weight (g, Mean ± SEM) Day 84 ([1]; 1 mg/kg IV Days 0, 7, 14, 21): 21.24 ± 0.26 g
Drug-related Death ([1]; 1 mg/kg IV Days 0, 7, 14, 21): 0
average body weight increase (%) on Day 84 compared to Day 0 ([1]; 1 mg/kg IV Days 0, 7, 14, 21): 6.66%
average body weight increase on Day 70 compared to Day 0 ([1]; 1 mg/kg IV Days 0, 7, 14, 21): 1.76 g
average body weight increase on Day 84 compared to Day 0 ([1]; 1 mg/kg IV Days 0, 7, 14, 21): 1.30 g
BWC (%) Day 70 (body weight change vs Day 0) ([1]; 1 mg/kg IV once on Day 0): 15.09%
Body Weight (g, Mean ± SEM) Day 70 ([1]; 1 mg/kg IV once on Day 0): 22.01 ± 0.50 g
Body Weight (g, Mean ± SEM) Day 84 ([1]; 1 mg/kg IV once on Day 0): 22.06 ± 0.64 g
Drug-related Death ([1]; 1 mg/kg IV once on Day 0): 0
average body weight increase (%) on Day 84 compared to Day 0 ([1]; 1 mg/kg IV once on Day 0): 12.37%
average body weight increase on Day 70 compared to Day 0 ([1]; 1 mg/kg IV once on Day 0): 2.87 g
average body weight increase on Day 84 compared to Day 0 ([1]; 1 mg/kg IV once on Day 0): 2.92 g
BWC (%) Day 70 (body weight change vs Day 0) [1, 5]: 8.89%
Body Weight (g, Mean ± SEM) Day 70 [1, 5]: 21.18 ± 0.49 g
Body Weight (g, Mean ± SEM) Day 84 [1, 5]: 21.31 ± 0.46 g
Drug-related Death [1, 5]: 0
average body weight increase (%) on Day 84 compared to Day 0 [1, 5]: 10.24%
average body weight increase on Day 70 compared to Day 0 [1, 5]: 1.72 g
average body weight increase on Day 84 compared to Day 0 [1, 5]: 1.85 g
BWC (%) Day 70 (body weight change vs Day 0) ([1]; 2 mg/kg IV once on Day 0): 11.00%
Body Weight (g, Mean ± SEM) Day 70 ([1]; 2 mg/kg IV once on Day 0): 21.63 ± 0.39 g
Body Weight (g, Mean ± SEM) Day 84 ([1]; 2 mg/kg IV once on Day 0): 21.75 ± 0.55 g
Drug-related Death ([1]; 2 mg/kg IV once on Day 0): 0
average body weight increase (%) on Day 84 compared to Day 0 ([1]; 2 mg/kg IV once on Day 0): 10.84%
average body weight increase on Day 70 compared to Day 0 ([1]; 2 mg/kg IV once on Day 0): 2.14 g
average body weight increase on Day 84 compared to Day 0 ([1]; 2 mg/kg IV once on Day 0): 2.26 g
BWC (%) Day 70 (body weight change vs Day 0) ([1]; 4 mg/kg IV once on Day 0): 10.87%
Body Weight (g, Mean ± SEM) Day 70 ([1]; 4 mg/kg IV once on Day 0): 21.72 ± 0.44 g
Body Weight (g, Mean ± SEM) Day 84 ([1]; 4 mg/kg IV once on Day 0): 20.96 ± 0.55 g
Drug-related Death ([1]; 4 mg/kg IV once on Day 0): 0
average body weight increase (%) on Day 84 compared to Day 0 ([1]; 4 mg/kg IV once on Day 0): 6.99%
average body weight increase on Day 70 compared to Day 0 ([1]; 4 mg/kg IV once on Day 0): 2.13 g
average body weight increase on Day 84 compared to Day 0 ([1]; 4 mg/kg IV once on Day 0): 1.37 g
tolerability in mice ([1]; maximum cumulative dose of 4 mg/kg IV (single or split doses)): well tolerated
Tumor Size (mm^3) at Day 42, mean ± SEM ([2]; 1 mg/kg intravenous): 620 ± 61 mm^3
Tumor Size (mm^3) at Day 42, mean ± SEM ([2]; 4 mg/kg intravenous): 4 ± 2 mm^3
average tumor volume on Day 56 ([2]; 4 mg/kg intravenous): 3 mm^3
T/C (%) ([2]; 1 mg/kg intravenous): 82%
TGI (%) ([2]; 1 mg/kg intravenous): 18%
T/C (%) ([2]; 4 mg/kg intravenous): 0%
TGI (%) ([2]; 4 mg/kg intravenous): 100%
side effects based on changes in body weight, survival and gross observations [3]: No obvious side effects
% TGI Day 70 [4]: 85.88%
% of mice with tumor regression at the end of the study [4]: 30%
Tumor Volume (mm^3, Mean ± SEM) Day 70 [4]: 191.51 mm^3 and 192.51 ± 91.38*** mm^3
Tumor Weight (g, Mean ± SEM) Day 84 [4]: 0.421 ± 0.218 g
Number of mice demonstrating full tumor regression at Week 4 following first dose ([4]; n = 6): 1
Number of mice demonstrating full tumor regression at Week 5 following first dose ([4]; n = 6): 1
Number of mice demonstrating full tumor regression at Week 6 following first dose ([4]; n = 6): 1
Number of mice demonstrating full tumor regression at Week 7 following first dose ([4]; n = 6): 2
Number of mice demonstrating full tumor regression at Week 8 following first dose ([4]; n = 6): 2
Number of mice demonstrating full tumor regression at Week 9 following first dose ([4]; n = 6): 2
Number of mice demonstrating full tumor regression at Week 10 following first dose ([4]; n = 6): 2
Number of mice demonstrating full tumor regression at Week 11 following first dose ([4]; n = 6): 2/6 and 2
